What was measured:
[1] = molecular target: maltose binding protein (MBP)

p53, P04637, sequence (P04637 whole entry, looked up, the tested form may be a part): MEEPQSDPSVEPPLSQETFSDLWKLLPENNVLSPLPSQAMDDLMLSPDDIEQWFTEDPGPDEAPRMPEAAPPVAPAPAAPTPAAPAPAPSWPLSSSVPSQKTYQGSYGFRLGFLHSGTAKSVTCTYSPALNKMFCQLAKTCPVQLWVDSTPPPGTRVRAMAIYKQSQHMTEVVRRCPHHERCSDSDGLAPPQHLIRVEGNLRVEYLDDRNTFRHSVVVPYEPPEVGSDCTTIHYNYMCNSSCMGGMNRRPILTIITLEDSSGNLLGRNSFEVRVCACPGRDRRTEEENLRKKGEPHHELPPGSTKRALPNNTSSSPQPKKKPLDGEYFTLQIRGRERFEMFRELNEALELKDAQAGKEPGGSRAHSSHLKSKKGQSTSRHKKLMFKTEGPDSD

Row | Protein | kinase activity (32P-ATP kinase reaction) (p53, P04637) | kinase activity (32P-ATP kinase reaction) [1]
1 | GST-CNK (wild type CNK fused to GST, produced in E. coli) (protein) MLAGLPTSDPGRLITDPRSGRTYLKGRLLGKGGFARCYEATDTETGSAYAVKVIPQSRVAKPHQREKILNEIELHRDLQHRHIVRFSHHFEDADNIYIFLELCSRKSLAHIWKARHTLLEPEVRYYLRQILSGLKYLHQRGILHRDLKLGNFFITENMELKVGDFGLAARLEPPEQRKKTICGTPNYVAPEVLLRQGHGPEADVWSLGCVMYTLLCGSPPFETADLKETYRCIKQVHYTLPASLSLPARQLLAAILRASPRDRPSIDQILRHDFFTKGYTPDRLPISSCVTVPDLTPPNPARSLFAKVTKSLFGRKKKSKNHAQERDEVSGLVSGLMRTSVGHQDARPEAPAASGPAPVSLVETAPEDSSPRGTLASSGDGFEEGLTVATVVESALCALRNCIAFMPPAEQNPAPLAQPEPLVWVSKWVDYSNKFGFGYQLSSRRVAVLFNDGTHMALSANRKTVHYNPTSTKHFSFSVGAVPRALQPQLGILRYFASYMEQHLMKGGDLPSVEEVEVPAPPLLLQWVKTDQALLMLFSDGTVQVNFYGDHTKLILSGWEPLLVTFVARNRSACTYLASHLRQLGCSPDLRQRLRYALRLLRDRSPA | Wild type GST-CNK phosphorylated p53, maltose binding protein (MBP) and also exhibited autophosphorylation activity. | Wild type GST-CNK phosphorylated p53, maltose binding protein (MBP) and also exhibited autophosphorylation activity.
2 | GST-CNK D146A mutant (protein) MLAGLPTSDPGRLITDPRSGRTYLKGRLLGKGGFARCYEATDTETGSAYAVKVIPQSRVAKPHQREKILNEIELHRDLQHRHIVRFSHHFEDADNIYIFLELCSRKSLAHIWKARHTLLEPEVRYYLRQILSGLKYLHQRGILHRALKLGNFFITENMELKVGDFGLAARLEPPEQRKKTICGTPNYVAPEVLLRQGHGPEADVWSLGCVMYTLLCGSPPFETADLKETYRCIKQVHYTLPASLSLPARQLLAAILRASPRDRPSIDQILRHDFFTKGYTPDRLPISSCVTVPDLTPPNPARSLFAKVTKSLFGRKKKSKNHAQERDEVSGLVSGLMRTSVGHQDARPEAPAASGPAPVSLVETAPEDSSPRGTLASSGDGFEEGLTVATVVESALCALRNCIAFMPPAEQNPAPLAQPEPLVWVSKWVDYSNKFGFGYQLSSRRVAVLFNDGTHMALSANRKTVHYNPTSTKHFSFSVGAVPRALQPQLGILRYFASYMEQHLMKGGDLPSVEEVEVPAPPLLLQWVKTDQALLMLFSDGTVQVNFYGDHTKLILSGWEPLLVTFVARNRSACTYLASHLRQLGCSPDLRQRLRYALRLLRDRSPA | The GST-CNK D146A mutant did not exhibit kinase activity. | The GST-CNK D146A mutant did not exhibit kinase activity.

Reference: patent publication US20040126784
